Results on seven molecules are retold here after patent US20220073604A1 (ARGENX BVBA, published 2022).

Where a chain is given by its changes, count along the chain named. Numbers in names are those of the source. Where “and” joins values, the source holds several entries; their conditions need not be identical. Identical values can stand only once.

Test [1] concerns the target T1, bacterially produced human IL-6 (human, UniProt P05231 30-212).
T1 construct: also called bact-hIL-6; BACT IL-6
As to the kind of experiment: off-rate of Fab 111A7 variant on bact-hIL-6 (binding kinetics, SPR presumed; n = 3).

Test [2] addresses IL-6 (bact-hIL-6, euk-hIL-6 and bact-cy IL-6; 'average binding' of Table 21). The test can be described thus: average binding level in the off-rate screen (unit not given; n = 3).
The target of test [3] is T2, bacterially produced cynomolgus monkey IL-6 (cynomolgus monkey, UniProt P79341 28-212, limits assumed).
T2 construct: also called bact-cy IL-6; HIS-cyIL-6
The test can be described thus: off-rate of Fab 111A7 variant on bact-cy IL-6 (binding kinetics, SPR presumed; n = 3).

For test [4], the target named is T3, eukaryotically produced human IL-6 (human, UniProt P05231 30-212).
T3 construct: also called euk-hIL-6; EUK IL-6
The test can be described thus: off-rate of Fab 111A7 variant on euk-hIL-6 (binding kinetics, SPR presumed; n = 3).

Test [5] addresses T2, bacterially produced cynomolgus monkey …. As to the kind of experiment: off-rate of Fab 111A7 variant on bact-cy IL-6 (binding kinetics, SPR presumed; n = 4).
In test [6] the target is IL-6 (bact-hIL-6, euk-hIL-6 and bact-cy IL-6; 'average binding' of Table 21). As to the kind of experiment: average binding level in the off-rate screen (unit not given; n = 4).
The target of test [7] is T4, bacterially produced human IL-6 (human, UniProt P05231 30-212).
T4 construct: Immobilised on the Biacore chip; also called BACT IL-6 (2-1); bactIL-6
The test can be described thus: SPR (Biacore), periplasmic Fab. In general terms: Surface plasmon resonance follows binding to a sensor surface in real time, without labels.
Experimental: (§1) The binding kinetics of periplasmic fractions of bacteria containing the mutant Fabs were tested using surface Plasmon resonance (Biacore) and the off-rate for each mutant was determined.

Test [8] addresses T5, eukaryotically produced human IL-6 (human, UniProt P05231 30-212).
T5 construct: Immobilised on the Biacore chip; also called Euk IL-6; EUK IL-6 (3-1)
As to the kind of experiment: SPR (Biacore), periplasmic Fab.
Experimental: as §1

Test [9] deals with T1, bacterially produced human IL-6. The test can be described thus: off-rate of Fab 111A7 variant on bact-hIL-6 (binding kinetics, SPR presumed; n = 1).
The target of test [10] is IL-6 (bact-hIL-6, euk-hIL-6 and bact-cy IL-6; 'average binding' of Table 21). The test can be described thus: average binding level in the off-rate screen (unit not given; n = 1).
Test [11] addresses T3, eukaryotically produced human IL-6. As to the kind of experiment: off-rate of Fab 111A7 variant on euk-hIL-6 (binding kinetics, SPR presumed; n = 1).
Test [12] addresses T2, bacterially produced cynomolgus monkey …. The test can be described thus: off-rate of Fab 111A7 variant on bact-cy IL-6 (binding kinetics, SPR presumed; n = 1).
The target of test [13] is IL-6 (bact-hIL-6, euk-hIL-6 and bact-cy IL-6; 'average binding' of Table 21). The test can be described thus: average binding level in the off-rate screen (unit not given; n = 5).
In test [14] the target is T3, eukaryotically produced human IL-6. The test can be described thus: off-rate of Fab 111A7 variant on euk-hIL-6 (binding kinetics, SPR presumed; n = 5).
Test [15] addresses T1, bacterially produced human IL-6. As to the kind of experiment: off-rate of Fab 111A7 variant on bact-hIL-6 (binding kinetics, SPR presumed; n = 5).
For test [16], the target named is T2, bacterially produced cynomolgus monkey …. The test can be described thus: off-rate of Fab 111A7 variant on bact-cy IL-6 (binding kinetics, SPR presumed; n = 5).
For test [17], the target named is T6, human IL-6 (human, UniProt P05231 30-212). The test can be described thus: SPR; purified Fab; average of the IL-6 channels.
Test [18] deals with IL-6 surfaces of Table 8 (Bact, euk, cyno), average. As to the kind of experiment: SPR (Biacore), off-rate screen.
Test [19] concerns the target eukaryotically produced human IL-6 (human) (UniProt P05231). As to the kind of experiment: SPR; purified Fab.
Test [20] concerns the target bacterially produced human IL-6 (human) (UniProt P05231). The test can be described thus: SPR; purified Fab.
Test [21] has the same target. As to the kind of experiment: SPR; purified Fab; ratio bact to euk IL-6.
In test [22] the target is eukaryotically produced human IL-6 (human) (UniProt P05231). The test can be described thus: SPR (Biacore), purified Fab.
In test [23] the target is bacterially produced human IL-6 (human) (UniProt P05231). As to the kind of experiment: SPR (Biacore), purified Fab.
Test [24] has as its target T7, eukaryotically produced human IL-6 (human, UniProt P05231 30-212).
T7 construct: also called eukIL-6; Euk IL-6
As to the kind of experiment: SPR; purified Fab.

Test [25] addresses T8, bacterially produced human IL-6 (human, UniProt P05231 30-212).
T8 construct: also called bactIL-6; prokaryotic IL-6
As to the kind of experiment: SPR; purified Fab.

For test [26], the target named is T6, human IL-6. The test can be described thus: comparison of affinities after VL shuffling.

B1: Fab 111A7M_A (CMC optimized variant of Fab 111A7, CDR3 methionine to alanine) (Fab, V domains shown)
VH: EVQLLESGGGLVQPGGSLRLSCAASGFTFSSYAMSWVRQAPGKGPEWVSRISAGGGSTYYGDSVKGRFTISRDNSKNTLYLQMNSLRAEDTAVYYCANRAGWGAGDYWGQGTLVTVSS
VL: QTVVTQEPSFSVSPGGTVTLTCGLSSGSVTASNYPGWYQQTPGQAPRALIYSTNDRHSGVPDRFSGSISGNKAALTITGAQAEDEADYYCALDIGDITEFGGGTQLTVL
notes: Fab; The VL is that of 111A7; also called M98X: A
Consider B1, for which the koff in test [1] was determined as 8.5e-05 s⁻¹; in [3] it was 0.000131 s⁻¹; in [4], 4.77e-05 s⁻¹. The molecule also registered an average binding in test [2] of 102.

B2: Fab 111A7 with the CDR3 methionine changed to H (Fab, V domains shown)
VH: B1 VH with A104H
VL: B1 VL
Consider B2, for which, in test [5], the off-rate constant (koff) was 0.000222 s⁻¹. In test [6], this molecule returned an average binding of 109.

B3: 111A7 Fab (W98, M100) (Fab, V domains shown)
VH: B1 VH with A104M
VL: B1 VL
notes: also called WGM
Regarding B3, the values for the koff in test [7] and in test [8] were 5e-05 s⁻¹ and 4.67e-05 s⁻¹, respectively.

B4: Fab 111A7M_L (CMC optimized variant of Fab 111A7, CDR3 methionine to leucine) (Fab, V domains shown)
VH: B1 VH with A104L
VL: B1 VL
notes: Fab; The VL is that of 111A7; also called M98X: L
As to B4, the figures for the koff in test [9], in test [11] and in test [12] were 0.000117 s⁻¹, 6.78e-05 s⁻¹ and 0.000184 s⁻¹, respectively. The average binding in [10] is 141.

B5: Fab 111A7M_S (CMC optimized variant of Fab 111A7, CDR3 methionine to serine) (Fab, V domains shown)
VH: B1 VH with A104S
VL: B1 VL
notes: Fab; The VL is that of 111A7; also called M98X: S
B5 had an average binding in test [13] of 118. The koff in test [14] is 5.46e-05 s⁻¹; in test [15], 9.81e-05 s⁻¹; in [16], 0.000146 s⁻¹.

B6: BE8-Fab (Fab, from another filing, V domains shown)
VH: QVTLKESGPGILKPSQTLSLTCSFSGFSLSTSGMGVGWIRQPSGKGLEWLAHIWWDDDKYYNPSLKSQLTISKDTSRNQVFLKITSVDTADTATYYCARSYDDYLYYALDYWGQGTSVTVSS
VL: DIVMTQSPATLSVTPGDRVSLSCRASQSISDYLHWYQQKSHESPRLLIKSVSQSISGIPSRFSGSGSGSDFTLSINSVEPEDVGVYYCQNGHSFPLTFGAGTKLELK
B6 displayed an average binding with human IL-6 [17] of 207. Also, the Average binding (RU) in [18] is 338 RU and 340 RU and 347 RU. Further, the dissociation rate constant (koff) was 8.59e-05 s⁻¹ in test [19], 9.41e-05 s⁻¹ in test [20], 7.7e-05 s⁻¹ in test [22] and 7.7e-05 s⁻¹ in [23]. The ratio bact/euk in [21] stood at 1.05. Further, the dissociation constant (Kd) worked out at 220 pM in test [22] and 280 pM in [23]. The kon in test [22] was found to be 360000 M⁻¹ s⁻¹; in test [23] it was 280000 M⁻¹ s⁻¹.

B7: Fab 68F2 (Fab, V domains shown)
VH: EVQLQESGPGLVKPSQTLSLTCTVSGGSITTRYYAWSWIRQPPGKGLEWMGVIDYDGDTYYSPSLKSRTSISWDTSKNQFSLQLSSVTPEDTAVYYCARDPDVVTGFHYDYWGQGTQVTVSS
VL: QSALTQPPLVSGTPGQTVTISCAGANNDIGTYAYVSWYQQLPGTAPKLLIYKVTTRASGIPSRFSGSKSGNTASLTISGLQSEDEADYYCASYRNFNNAVFGRGTHLTVLG
notes: VL-shuffled Fab of 20A4; for the crystal the Fab was made from 68F2 mAb with papain; also called 68F2 Fab
With B7, the dissociation rate constant (koff) in test [24] came to 3.3e-05 s⁻¹; in [25] it was 8e-05 s⁻¹. In addition, the “fold affinity against parental 20A4” value in the test with human IL-6 [26] worked out at 10 fold.

As a reminder, the koff is the rate constant with which the complex falls apart. Usually Kd stands for the concentration at which binding is half-saturated. As a reminder, the kon is the rate constant with which the complex forms.
